These are literature values, as cited in article PMC5603210.

The target of this data set is von Willebrand factor (Homo sapiens) (UniProt P04275).

For the substance Factor VIII (from UniProt P00451), the Kd (usually the equilibrium constant for the complex coming apart) was 0.5 nM.
